Target: F-actin (rabbit, UniProt P68135 1-377)
Assay: co-sedimentation

stoichiometry N: ~8 actin molecules per His6-neurabin molecule
B1: His6-neurabin (natural protein)
chain: not shown
